# [ ]: non-standard residue; d: D form. The star is where a group is joined. 5FAM = O=C1OC2(c3ccc(O)cc3Oc3cc(O)ccc32)c2ccc(C(=O)*)cc21; pT = C[C@@H](OP(=O)(O)O)[C@H](N)C(=O)O
# T1: PLK2 Polo-box domain (Homo sapiens, UniProt Q9NYY3)
# T1 sequence (Q9NYY3 355-685): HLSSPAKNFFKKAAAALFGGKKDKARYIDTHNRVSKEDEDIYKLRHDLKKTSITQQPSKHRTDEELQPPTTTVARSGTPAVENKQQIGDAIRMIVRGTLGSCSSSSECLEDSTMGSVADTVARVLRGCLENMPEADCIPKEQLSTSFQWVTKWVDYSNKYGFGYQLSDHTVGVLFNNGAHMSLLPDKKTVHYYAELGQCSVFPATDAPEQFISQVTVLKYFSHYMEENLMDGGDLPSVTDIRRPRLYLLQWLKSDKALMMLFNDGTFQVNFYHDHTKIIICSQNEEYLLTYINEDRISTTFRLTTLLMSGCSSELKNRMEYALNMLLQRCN
# T2: Polo-box domain (PBD) of human PLK2 (aa 355–685) (human, UniProt Q9NYY3 355-685)
# T2 sequence (looked up): T1 sequence (Q9NYY3 355-685)
# T3: Polo-box domain (PBD) of human PLK3 (aa 335–646) (human, UniProt Q9H4B4 335-646)
# T3 sequence (looked up): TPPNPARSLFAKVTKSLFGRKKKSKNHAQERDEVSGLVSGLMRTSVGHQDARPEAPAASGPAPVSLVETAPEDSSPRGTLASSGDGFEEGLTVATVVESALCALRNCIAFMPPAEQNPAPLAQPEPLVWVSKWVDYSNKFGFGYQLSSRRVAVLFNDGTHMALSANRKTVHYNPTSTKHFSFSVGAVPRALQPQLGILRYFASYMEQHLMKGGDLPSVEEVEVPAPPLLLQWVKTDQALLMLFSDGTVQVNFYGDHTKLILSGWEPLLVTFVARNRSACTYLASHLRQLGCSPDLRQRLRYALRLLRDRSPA
# B1: 5-carboxyfluorescein-GPMQSpTPLNG-OH (peptide)
# peptide: 5FAM-GPMQS[pT]PLNG-OH
# SMILES: CSCC[C@H](NC(=O)[C@@H]1CCCN1C(=O)CNC(=O)c1ccc2c(c1)C(=O)OC21c2ccc(O)cc2Oc2cc(O)ccc21)C(=O)N[C@@H](CCC(N)=O)C(=O)N[C@@H](CO)C(=O)N[C@H](C(=O)N1CCC[C@H]1C(=O)N[C@@H](CC(C)C)C(=O)N[C@@H](CC(N)=O)C(=O)NCC(=O)O)[C@@H](C)OP(=O)(O)O
# B2: 5-carboxyfluorescein-GPMQTSpTPKNG-OH (peptide)
# peptide: 5FAM-GPMQTS[pT]PKNG-OH
# SMILES: CSCC[C@H](NC(=O)[C@@H]1CCCN1C(=O)CNC(=O)c1ccc2c(c1)C(=O)OC21c2ccc(O)cc2Oc2cc(O)ccc21)C(=O)N[C@@H](CCC(N)=O)C(=O)N[C@H](C(=O)N[C@@H](CO)C(=O)N[C@H](C(=O)N1CCC[C@H]1C(=O)N[C@@H](CCCCN)C(=O)N[C@@H](CC(N)=O)C(=O)NCC(=O)O)[C@@H](C)OP(=O)(O)O)[C@@H](C)O
# B3: 5-carboxyfluorescein-GPLATSpTPKNG-OH (peptide)
# peptide: 5FAM-GPLATS[pT]PKNG-OH
# SMILES: CC(C)C[C@H](NC(=O)[C@@H]1CCCN1C(=O)CNC(=O)c1ccc2c(c1)C(=O)OC21c2ccc(O)cc2Oc2cc(O)ccc21)C(=O)N[C@@H](C)C(=O)N[C@H](C(=O)N[C@@H](CO)C(=O)N[C@H](C(=O)N1CCC[C@H]1C(=O)N[C@@H](CCCCN)C(=O)N[C@@H](CC(N)=O)C(=O)NCC(=O)O)[C@@H](C)OP(=O)(O)O)[C@@H](C)O
# Legend:
# [1] = target: Polo-like kinase 1 (PLK1) Polo-box domain (Homo sapiens, UniProt P53350); experiment: microscale thermophoresis with labeled PLK1 PBD; type: binding
# Chain of Polo-like kinase 1 (PLK1) Polo-box domain (P53350 326-603): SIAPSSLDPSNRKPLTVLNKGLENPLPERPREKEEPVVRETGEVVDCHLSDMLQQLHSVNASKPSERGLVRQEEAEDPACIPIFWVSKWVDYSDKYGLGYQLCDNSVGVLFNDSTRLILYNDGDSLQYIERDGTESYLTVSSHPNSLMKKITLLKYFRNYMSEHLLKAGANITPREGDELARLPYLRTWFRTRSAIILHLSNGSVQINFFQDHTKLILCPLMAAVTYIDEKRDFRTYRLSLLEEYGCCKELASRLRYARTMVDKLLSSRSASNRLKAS
# PLK2 Polo-box domain = target: T1, PLK2 Polo-box domain; experiment: fluorescence polarization competition with fluorescein-labeled phosphopeptide; type: binding
# [2] = target: Polo-box domain (PBD) of human PLK1 (aa 326–603) (human, UniProt P53350 326-603); experiment: fluorescence polarisation
# Chain of Polo-box domain (PBD) of human PLK1 (aa 326–603) (P53350 326-603): as above
# [3] = target: T2, Polo-box domain (PBD) of human PLK2 (aa …); experiment: fluorescence polarisation
# [4] = target: T3, Polo-box domain (PBD) of human PLK3 (aa …); experiment: fluorescence polarisation
molecule,measurement,setting,value
"CCOC(=O)c1oc2ccccc2c1CBr [MCC1019, 3-bromomethyl-benzofuran-2-carboxylic acid ethyl ester]",Kd,[1],18.9 µM
same,IC50,PLK2 Polo-box domain,44.1 ± 14.4 µM
B1,binding result,[2],binds
B2,binding result,[3],binds
B3,binding result,[4],binds

# — PMC6804483 (Acta Pharmaceutica Sinica. B, 2019)
